Data reported in patent publication US20220089721A1 (Bayer, published 2022).

T1: human CEACAM6 (carcinoembryonic antigen-related cell adhesion molecule 6) (human, UniProt P40199 35-320)
T1 sequence (looked up): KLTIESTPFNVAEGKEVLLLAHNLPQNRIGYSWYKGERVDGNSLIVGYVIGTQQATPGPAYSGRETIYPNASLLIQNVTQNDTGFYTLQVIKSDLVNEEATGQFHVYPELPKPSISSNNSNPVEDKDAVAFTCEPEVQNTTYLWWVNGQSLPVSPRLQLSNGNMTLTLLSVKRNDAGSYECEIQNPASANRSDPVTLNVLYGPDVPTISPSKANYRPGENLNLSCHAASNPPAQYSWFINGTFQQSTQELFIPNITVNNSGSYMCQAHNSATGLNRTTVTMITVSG


Tests used:
[1] = biological target: T cell immunoglobulin domain and mucin domain 3 (TIM-3) (human) (UniProt Q8TDQ0); experiment: cell-based or functional assay
[2] = biological target: T1, human CEACAM6 (carcinoembryonic …); experiment: cell-based or functional assay

Row | Molecule | IFN-γ in pg/ml, absolute mean, TC + HCC + 0.5 µg/ml FLU pep + 50 µg/ml antibody (isotype Mab006: 735.0) [1] [pg/mL] | IFNg [pg/ml], isotype corrected, FluM1 T cells + HCC2935, single agent 50 µg/ml, experiment 1 [1] [pg/mL] | IFNg [pg/ml], isotype corrected, FluM1 T cells + HCC2935, single agent 50 µg/ml, experiment 2 [1] [pg/mL] | IFNg [pg/ml], isotype corrected, FluM1 T cells + HCC2935, single agent 50 µg/ml, experiment 3 [1] [pg/mL] | IFNg [pg/ml], isotype corrected, FluM1 T cells + HCC2935, single agent 50 µg/ml, experiment 4 [1] [pg/mL] | IFNg [pg/ml], isotype corrected, FluM1 T cells + HCC2935, single agent 50 µg/ml, experiment 5 [1] [pg/mL] | IFNg [pg/ml], isotype corrected, FluM1 T cells + HCC2935, single agent 50 µg/ml, experiment 6 [1] [pg/mL] | IFNg [pg/ml], isotype corrected, FluM1 T cells + HCC2935, single agent 50 µg/ml, experiment 7 [1] [pg/mL] | IFNg [pg/ml], isotype corrected, FluM1 T cells + HCC2935, single agent 50 µg/ml, mean of n = 7 [1] [pg/mL] | Mean IFNg (pg/ml), isotype corrected, survivin-peptide specific T cells + HCC2935 lung cells, single agent 50 µg/ml, n = 1 [1] [pg/mL] | Mean IFNg (pg/ml), isotype corrected, survivin-peptide specific T cells + KS breast cancer cells, single agent 50 µg/ml, n = 1 [1] [pg/mL] | half-maximal effective concentration (EC50) for activation of T cells in co-culture [2] [mg/L]
1 | MAB2365 (rIgG2, R&D Jackson Immunoresearch), anti-TIM3 antibody | 925 | 65 | 67.7 | 37 | 247 | 287 | 288 | 278 | 182 | 63.6 | 18.3 | –
2 | anti-CEACAM6 antibody TPP-3310 (antibody, human IgG2, kappa, V domains shown) VH: QVTLRESGPALVKPTQTLTLTCTFSGFSLSTYGIGVGWIRQPPGKALEWLAHIWWNDNKYYSTSLKTRLTISKDTSKNQVVLTMTNMDPVDTATYYCARISLPYFDYWGQGTTLTVSS VL: DIQLTQSPSFLSASVGDRVTITCKASQNVGTAVAWYQQKPGKAPKLLIYSASNRYTGVPSRFSGSGSGTEFTLTISSLQPEDFATYYCQQYSSYPLTFGGGTKVEIKR | – | – | – | – | – | – | – | – | – | – | – | ~1
